Results published in article PMC7203548.

Assays:
[1] = biological target: PlexA_(ecto) (full-length ectodomain of Drosophila Plexin A, all ten domains, residues 28-1272), biotinylated (Drosophila) (UniProt Q9V491); experiment: SPR; equilibrium, apparent KD; biotinylated PlexA constructs immobilised on SA chip from dialysed conditioned medium; Biacore T200, PBS, 0.05% Tween 20, 25°C
[2] = biological target: OTK1-5 K237A ectodomain, biotinylated (pHL-Avitag3) (Drosophila melanogaster) (UniProt Q6AWJ9); experiment: SPR; equilibrium, apparent KD; biotinylated OTK immobilised on SA chip from dialysed conditioned medium; Biacore T200, PBS, 0.05% Tween 20, 25°C
Sequence of UniProt Q6AWJ9 (Q6AWJ9 23-580 K237A): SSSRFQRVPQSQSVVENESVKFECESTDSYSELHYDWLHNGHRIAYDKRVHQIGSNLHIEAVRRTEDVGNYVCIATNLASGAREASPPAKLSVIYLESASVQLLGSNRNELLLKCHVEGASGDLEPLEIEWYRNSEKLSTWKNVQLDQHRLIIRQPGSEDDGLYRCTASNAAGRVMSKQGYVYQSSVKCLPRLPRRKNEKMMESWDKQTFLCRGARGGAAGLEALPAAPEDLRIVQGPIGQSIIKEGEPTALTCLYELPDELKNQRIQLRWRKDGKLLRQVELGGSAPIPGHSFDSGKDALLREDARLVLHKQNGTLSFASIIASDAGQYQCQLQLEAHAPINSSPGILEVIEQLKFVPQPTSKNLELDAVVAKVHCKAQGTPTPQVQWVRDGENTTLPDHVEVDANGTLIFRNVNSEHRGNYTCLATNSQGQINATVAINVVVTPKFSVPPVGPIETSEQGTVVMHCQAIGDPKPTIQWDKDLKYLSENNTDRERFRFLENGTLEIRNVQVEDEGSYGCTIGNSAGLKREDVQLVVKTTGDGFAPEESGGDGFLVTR

Sequence of UniProt Q9V491 (Q9V491 entry or part of it): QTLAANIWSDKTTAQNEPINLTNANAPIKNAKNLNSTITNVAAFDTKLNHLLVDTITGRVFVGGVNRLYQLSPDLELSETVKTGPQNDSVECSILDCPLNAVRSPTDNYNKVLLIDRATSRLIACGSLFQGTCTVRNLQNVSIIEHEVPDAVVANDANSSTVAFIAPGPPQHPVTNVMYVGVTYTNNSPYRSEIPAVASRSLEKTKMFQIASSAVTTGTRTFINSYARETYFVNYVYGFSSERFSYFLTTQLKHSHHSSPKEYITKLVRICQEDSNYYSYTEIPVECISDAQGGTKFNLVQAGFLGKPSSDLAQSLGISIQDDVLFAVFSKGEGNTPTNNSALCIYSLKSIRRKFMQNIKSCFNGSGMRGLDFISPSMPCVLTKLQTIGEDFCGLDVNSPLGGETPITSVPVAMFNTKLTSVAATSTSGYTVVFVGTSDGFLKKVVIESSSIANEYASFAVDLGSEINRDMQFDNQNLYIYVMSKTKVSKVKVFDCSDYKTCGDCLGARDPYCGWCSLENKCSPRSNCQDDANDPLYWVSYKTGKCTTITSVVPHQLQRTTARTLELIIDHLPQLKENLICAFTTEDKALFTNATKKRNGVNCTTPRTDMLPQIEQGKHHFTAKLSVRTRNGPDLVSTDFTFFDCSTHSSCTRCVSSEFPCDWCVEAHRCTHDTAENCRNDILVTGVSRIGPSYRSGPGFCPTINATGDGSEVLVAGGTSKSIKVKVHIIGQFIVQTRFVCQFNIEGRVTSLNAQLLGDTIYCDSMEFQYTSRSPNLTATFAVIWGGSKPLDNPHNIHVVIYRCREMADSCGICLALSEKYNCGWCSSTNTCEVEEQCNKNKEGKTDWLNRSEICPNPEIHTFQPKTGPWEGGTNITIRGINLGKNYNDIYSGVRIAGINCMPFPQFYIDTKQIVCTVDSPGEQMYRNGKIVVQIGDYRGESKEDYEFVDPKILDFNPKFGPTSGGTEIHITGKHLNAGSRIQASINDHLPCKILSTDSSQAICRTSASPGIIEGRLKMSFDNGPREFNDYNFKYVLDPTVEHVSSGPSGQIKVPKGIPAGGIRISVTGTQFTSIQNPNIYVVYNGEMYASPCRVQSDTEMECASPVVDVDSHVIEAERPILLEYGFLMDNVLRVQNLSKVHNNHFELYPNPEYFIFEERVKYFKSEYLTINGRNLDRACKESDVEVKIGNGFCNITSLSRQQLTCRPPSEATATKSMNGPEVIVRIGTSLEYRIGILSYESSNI

Sema1a ectodomain (Drosophila semaphorin 1a) (from UniProt Q24322 1-899) (ligand)
Kd [1]: 7.4 µM
Kd [2]: 4 µM
